The results in this text go back to patent US20190142860A1, “NUCLEIC ACID BASED TIA-1 INHIBITORS” (Aquinnah Pharmaceuticals, Inc., priority 2015, published 2019).

For assay [1], the target named is Nucleolysin TIA-1 (endogenous mouse TIA1) (mouse) (UniProt P52912). Kind of assay: TIA1 IP-MS, WT1 cortex.
For assay [2] the target is unchanged. Kind of assay: TIA1 IP-MS, WT2 cortex.
For assay [3] the target is unchanged. Description: TIA1 IP-MS, WT3 cortex.
Assay [4] shares this target. Kind of assay: TIA1 IP-MS, tau KO 1 cortex.
Assay [5] has the same target. Description: TIA1 IP-MS, tau KO 2 cortex.
The target is the same in assay [6]. Description: TIA1 IP-MS, tau KO 3 cortex.

Chain of UniProt P52912 (P52912 whole entry): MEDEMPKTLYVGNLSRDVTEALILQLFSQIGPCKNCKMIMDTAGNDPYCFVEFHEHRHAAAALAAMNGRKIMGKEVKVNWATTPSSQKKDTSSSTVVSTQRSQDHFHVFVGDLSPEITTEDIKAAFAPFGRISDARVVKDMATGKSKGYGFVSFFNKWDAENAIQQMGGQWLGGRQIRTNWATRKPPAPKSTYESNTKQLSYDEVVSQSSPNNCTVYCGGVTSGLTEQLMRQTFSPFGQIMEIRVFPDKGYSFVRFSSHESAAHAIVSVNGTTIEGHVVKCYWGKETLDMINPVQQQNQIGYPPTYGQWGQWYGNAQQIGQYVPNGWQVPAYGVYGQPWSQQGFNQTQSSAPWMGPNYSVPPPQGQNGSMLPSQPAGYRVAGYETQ

As for “Isoform 2 of Hepatoma-derived growth factor-related protein 2 (from UniProt Q3UMU9 1-667)”, the total ion current (normalized to TIA1 = 1000) in assay [1] is 0; in assay [2], 282; in assay [3], 0; in assay [4] it was 0; in assay [5] it was 97.1; in assay [6], 0.
As to “LanC-like protein 1 (from UniProt O89112 2-399)”, the total ion current (normalized to TIA1 = 1000) in assay [1] came out at 0; in assay [2], 0; in assay [3], 218; in assay [4], 0; in assay [5], 97.8; in assay [6], 0.
“Heterogeneous nuclear ribonucleoprotein U-like protein 2 (from UniProt Q00PI9 1-745)”: the total ion current (normalized to TIA1 = 1000) came to 11.1 in assay [1]; 53.3 in assay [2]; 0 in assay [3]; 11.7 in assay [4]; 17 in assay [5]; 0 in assay [6].
As for “Succinyl-CoA ligase [ADP-forming] subunit beta, mitochondrial (from UniProt Q9Z2I9 54-463)”, the total ion current (normalized to TIA1 = 1000) came to 0 in assay [1]; 61.7 in assay [2]; 86.3 in assay [3]; 0 in assay [4]; 49 in assay [5]; 0 in assay [6].
For the substance “26S proteasome non-ATPase regulatory subunit 8 (from UniProt Q9CX56 1-353)”, the total ion current (normalized to TIA1 = 1000) in assay [1] turned out to be 80.3; in assay [2] it was 0; in assay [3] it was 0; in assay [4] it was 4.11; in assay [5] it was 0; in assay [6] it was 0.
Take “Isoform 2 of Beta-adducin (from UniProt Q9QYB8 1-562)”: the total ion current (normalized to TIA1 = 1000) in assay [1] was determined as 0; in assay [2] it was 346; in assay [3], 0; in assay [4] it was 0; in assay [5], 32.6; in assay [6] it was 0.
Take “ATP synthase subunit O, mitochondrial (from UniProt Q9DB20 24-213)”: the total ion current (normalized to TIA1 = 1000) came out at 0 in assay [1]; 375 in assay [2]; 0 in assay [3]; 0 in assay [4]; 0 in assay [5]; 0 in assay [6].
With “Isoform A of Cytosolic acyl coenzyme A thioester hydrolase (from UniProt Q91V12 1-338)”, the total ion current (normalized to TIA1 = 1000) in assay [1] is 0; in assay [2], 372; in assay [3], 515; in assay [4], 0; in assay [5] it was 190; in assay [6], 0.
Turning to “Dihydrolipoyllysine-residue acetyltransferase component of pyruvate dehydrogenase complex, mitochondrial (from UniProt Q8BMF4 86-642)”, the total ion current (normalized to TIA1 = 1000) in assay [1] is 0; in assay [2] it was 353; in assay [3], 0; in assay [4], 0; in assay [5], 130; in assay [6] it was 0.
“Serine--tRNA ligase, cytoplasmic (from UniProt P26638 1-512)”: the total ion current (normalized to TIA1 = 1000) in assay [1] was 0; in assay [2], 65.8; in assay [3], 0; in assay [4], 0; in assay [5], 0; in assay [6], 0.
On to “Synaptosomal-associated protein 25 (from UniProt P60879 1-206)”, for which the total ion current (normalized to TIA1 = 1000) worked out at 0 in assay [1]; 165 in assay [2]; 0 in assay [3]; 0 in assay [4]; 138 in assay [5]; 0 in assay [6].
As for “NADH dehydrogenase [ubiquinone] flavoprotein 1, mitochondrial (from UniProt Q91YT0 21-464)”, the total ion current (normalized to TIA1 = 1000) is 0 in assay [1]; 179 in assay [2]; 0 in assay [3]; 0 in assay [4]; 0 in assay [5]; 0 in assay [6].
Regarding “Isoform I of Septin-6 (from UniProt Q9R1T4 2-427)”, the total ion current (normalized to TIA1 = 1000) in assay [1] was 0; in assay [2], 53.3; in assay [3], 0; in assay [4] it was 0; in assay [5], 35.6; in assay [6] it was 0.
Turning to “Isoform M1 of Pyruvate kinase PKM (from UniProt P52480 1-531)”, the total ion current (normalized to TIA1 = 1000) in assay [1] came to 0; in assay [2] it was 1130; in assay [3] it was 722; in assay [4], 0; in assay [5] it was 891; in assay [6], 0.
Regarding “Malate dehydrogenase, mitochondrial (from UniProt P08249 25-338)”, the total ion current (normalized to TIA1 = 1000) was found to be 0 in assay [1]; 819 in assay [2]; 131 in assay [3]; 0 in assay [4]; 477 in assay [5]; 0 in assay [6].
As to “Pyridoxal kinase (from UniProt Q8K183 1-312)”, the total ion current (normalized to TIA1 = 1000) in assay [1] was determined as 0; in assay [2] it was 80.3; in assay [3] it was 0; in assay [4] it was 0; in assay [5] it was 104; in assay [6], 0.
For the substance “Histone H1.4 (from UniProt P43274 2-219)”, the total ion current (normalized to TIA1 = 1000) came to 0 in assay [1]; 56 in assay [2]; 78.1 in assay [3]; 0 in assay [4]; 55.4 in assay [5]; 0 in assay [6].
Regarding “Tubulin polymerization-promoting protein (from UniProt Q7TQD2 1-218)”, the total ion current (normalized to TIA1 = 1000) was found to be 0 in assay [1]; 299 in assay [2]; 220 in assay [3]; 0 in assay [4]; 40.4 in assay [5]; 0 in assay [6].
Take “Isoform B of AP-2 complex subunit alpha-1 (from UniProt P17426 1-955)”: the total ion current (normalized to TIA1 = 1000) amounted to 0 in assay [1]; 159 in assay [2]; 68.8 in assay [3]; 0 in assay [4]; 248 in assay [5]; 0 in assay [6].
For “AP-2 complex subunit alpha-2 (from UniProt P17427 1-938)”, the total ion current (normalized to TIA1 = 1000) stood at 0 in assay [1]; 128 in assay [2]; 68.8 in assay [3]; 0 in assay [4]; 186 in assay [5]; 0 in assay [6].
In the case of “Isoform 2 of Phosphatidylinositol-binding clathrin assembly protein (from UniProt Q7M6Y3 2-597)”, the total ion current (normalized to TIA1 = 1000) in assay [1] came to 0; in assay [2], 20.1; in assay [3], 0; in assay [4], 0; in assay [5], 31.4; in assay [6], 0.
Consider “Acetyl-CoA acetyltransferase, mitochondrial (from UniProt Q8QZT1 31-424)”, for which the total ion current (normalized to TIA1 = 1000) came out at 0 in assay [1]; 175 in assay [2]; 18.1 in assay [3]; 0 in assay [4]; 70.3 in assay [5]; 0 in assay [6].
